# Patent publication US20140241984A1 (UNITED ARAB EMIRATES UNIVERSITY, published 2014)
# T1: fibrils of NAC (61-78) (human)
# T1 construct: also called NAC (61-78) (F)
# T1 peptide: EQVTNVGGAVVTGVTAVA
# T2: IAPP monomers (UniProt P10997 34-70)
# T2 peptide (looked up): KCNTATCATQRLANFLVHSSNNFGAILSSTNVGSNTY
# T3: IAPP fibrils (UniProt P10997 34-70)
# T3 construct: Amyloid fibrils of IAPP spotted in the dot blot; also called islet amyloid polypeptide
# T3 peptide (looked up): T2 peptide (looked up)
# T4: α-synuclein peptide 16 (106-119) (human)
# T4 construct: also called Peptide No. 16
# T4 peptide: GAPQEGILEDMPVD
# T5: α-synuclein peptide 2 (8-21) (human)
# T5 construct: also called Peptide No. 2
# T5 peptide: LSKAKEGVVAAAEK
# T6: α-synuclein peptide 7 (43-56) (human)
# T6 construct: also called Peptide No. 7
# T6 peptide: KTKEGVVHGVATVA
# T7: α-synuclein peptide 8 (50-63) (human)
# T7 construct: also called Peptide No. 8
# T7 peptide: HGVATVAEKTKEQV
# T8: α-synuclein peptide 15 (99-112) (human)
# T8 construct: also called Peptide No. 15
# T8 peptide: QLGKNEEGAPQEGI
# T9: α-synuclein peptide 10 (64-77) (human)
# T9 construct: also called Peptide No. 10
# T9 peptide: TNVGGAVVTGVTAV
# T10: α-synuclein peptide 18 (120-133) (human)
# T10 construct: also called Peptide No. 18
# T10 peptide: PDNEAYEMPSEEGY
# T11: α-synuclein peptide 14 (92-105) (human)
# T11 construct: also called Peptide No. 14
# T11 peptide: TGFVKKDQLGKNEE
# T12: α-synuclein peptide 11 (71-84) (human)
# T12 construct: also called Peptide No. 11
# T12 peptide: VTGVTAVAQKTVEG
# T13: α-synuclein peptide 3 (15-28) (human)
# T13 construct: also called Peptide No. 3
# T13 peptide: VVAAAEKTKQGVAE
# T14: α-synuclein peptide 9 (57-70) (human)
# T14 construct: also called Peptide No. 9
# T14 peptide: EKTKEQVTNVGGAV
# T15: α-synuclein peptide 12 (78-91) (human)
# T15 construct: also called Peptide No. 12
# T15 peptide: AQKTVEGAGSIAAA
# T16: α-synuclein peptide 6 (36-49) (human)
# T16 construct: also called Peptide No. 6
# T16 peptide: GVLYVGSKTKEGVV
# T17: α-synuclein peptide 13 (85-98) (human)
# T17 construct: also called Peptide No. 13
# T17 peptide: AGSIAAATGFVKKD
# T18: α-synuclein peptide 17 (113-126) (human)
# T18 construct: also called Peptide No. 17
# T18 peptide: LEDMPVDPDNEAYE
# T19: α-synuclein peptide 1 (1-14) (human)
# T19 construct: also called Peptide No. 1
# T19 peptide: MDVFMKGLSKAKEG
# B1: Syn-O1 (antibody, IgG2b, V domains shown)
# VH: EVQLVESGGGLVQPKGSLKLSCAASGFTFNTYAMHWVRQAPGKGLEWVARIRSKSSNYATYYADSVKDRFTISRDDSQSMLYLQMNNLKTEDTAMYYCVRPLKWYFDVWGTGTTVTVSS
# VL: QIVLTQSPAILSASPGEKVTMTCSASSTVNYMHWYQQKSGTSPKIWIYDTSKLASGVPARFSGSGSWTSYSLTISSMEAEDAATYYCQQWNSNPPTFGAGTKLELK
# notes: also called mAb Syn-O1
# B2: Syn-O2 (antibody, IgG1, V domains shown)
# VH: B1 VH
# VL: B1 VL
# notes: same VH and VL as Syn-O1, Syn-O3, Syn-O4; also called mAb Syn-O2
# B3: Syn-F2 (antibody, IgG2a, V domains shown)
# VH: DVQLVESGGGLVQPGGSRKLSCAASGFTFSSFGMHWVRQAPEKGLEWVAYISSGSSTIYYADTVKGRFTISRDNPKNTLFLQMTSLRSEDTAMYYCARGNNPGTGYYYAMDYWGQGTSVTVSS
# VL: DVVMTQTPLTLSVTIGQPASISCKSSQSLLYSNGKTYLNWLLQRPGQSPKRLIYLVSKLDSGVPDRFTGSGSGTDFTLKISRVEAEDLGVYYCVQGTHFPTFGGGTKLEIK
# notes: also called mAb Syn-F2
# Molecular target: β-synuclein fibrils (UniProt Q16143 1-134)
# Experiment: dot blot
# Procedure: (§1) The membranes were blocked with 5% skimmed milk in PBST (PBS containing 0.05% Tween) and incubated for 1 h at room temperature. […] The membranes were washed and incubated with either 1/20000 diluted goat anti-mouse IgG-HRP (Jackson ImmunoResearch) or 1/10000 diluted goat anti-rabbit IgG-HRP (Jackson Immunoresearch) for 1 h at room temperature. The blots were then developed with Super signal West Pico chemiluminescent substrate.
# (§2) C) To test the cross reactivity of our conformational monoclonal antibodies to different fragments of α-synuclein. […] The membranes were washed before incubating with either 1/20000 diluted goat anti-mouse IgG-HRP conjugate (Jackson Immunoresearch) or 1/300000 diluted chicken anti-goat IgG-HRP conjugate (Santa Cruz Biotechnology) for 1 h at room temperature. The blots were then developed with Super signal West Pico chemiluminescent substrate.
# Sequence of β-synuclein fibrils (Q16143 whole entry): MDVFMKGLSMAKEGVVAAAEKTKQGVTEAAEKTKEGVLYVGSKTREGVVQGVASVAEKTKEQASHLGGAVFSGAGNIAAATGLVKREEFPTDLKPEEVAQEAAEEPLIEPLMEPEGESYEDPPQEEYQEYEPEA
row,Binder,binding result
1,B1,no binding (tested: 50 ng spotted)
2,B2,no binding (tested: 50 ng spotted)
3,B3,no binding (tested: 50 ng spotted)

# Molecular target: T20, A-beta monomers (UniProt P05067 672-713, limits assumed)
# T20 construct: also called β-amyloid monomers
# Experiment: dot blot
# Procedure: as §1, §2
row,Binder,binding result
1,B1,"no binding (tested: 50 ng/ml antibody, 50 ng spotted)"
2,B2,"no binding (tested: 50 ng/ml antibody, 50 ng spotted)"
3,B3,"no binding (tested: 50 ng/ml antibody, 50 ng spotted)"

# Molecular target: T21, A-beta fibrils (UniProt P05067 672-713, limits assumed)
# T21 construct: Amyloid fibrils of A-beta spotted in the dot blot; also called β-amyloid
# Experiment: dot blot
# Procedure: as §1, §2
row,Binder,binding result
1,B1,"no binding (tested: 50 ng/ml antibody, 50 ng spotted)"
2,B2,"no binding (tested: 50 ng/ml antibody, 50 ng spotted)"
3,B3,"no binding (tested: 50 ng/ml antibody, 50 ng spotted)"

# Molecular target: γ-synuclein monomers (UniProt O76070 1-127)
# Experiment: dot blot
# Procedure: as §1, §2
# Sequence of γ-synuclein monomers (O76070 whole entry): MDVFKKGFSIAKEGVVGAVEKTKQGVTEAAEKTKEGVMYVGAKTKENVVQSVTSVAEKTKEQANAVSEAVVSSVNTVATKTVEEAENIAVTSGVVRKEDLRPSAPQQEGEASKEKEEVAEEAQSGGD
row,Binder,binding result
1,B1,no binding (tested: 50 ng spotted)
2,B2,no binding (tested: 50 ng spotted)
3,B3,no binding (tested: 50 ng spotted)

# Molecular target: T1, fibrils of NAC (61-78)
# Experiment: dot blot
# Procedure: as §1, §2
row,Binder,binding result
1,B1,no binding (tested: 50 ng spotted)
2,B2,no binding (tested: 50 ng spotted)
3,B3,no binding (tested: 50 ng spotted)

# Molecular target: T2, IAPP monomers
# Experiment: dot blot
# Procedure: as §1, §2
row,Binder,binding result
1,B1,"no binding (tested: 50 ng/ml antibody, 50 ng spotted)"
2,B2,"no binding (tested: 50 ng/ml antibody, 50 ng spotted)"
3,B3,"no binding (tested: 50 ng/ml antibody, 50 ng spotted)"

# Molecular target: β-synuclein monomers (UniProt Q16143 1-134)
# Experiment: dot blot
# Procedure: as §1, §2
# Sequence of β-synuclein monomers (Q16143 whole entry): as the sequence (Q16143 whole entry) above
row,Binder,binding result
1,B1,no binding (tested: 50 ng spotted)
2,B2,no binding (tested: 50 ng spotted)
3,B3,no binding (tested: 50 ng spotted)

# Molecular target: T22, fibrils of NAC (61-95) (human)
# T22 construct: also called NAC region (61-95) (F)
# Experiment: dot blot
# Procedure: as §1, §2
row,Binder,binding result
1,B1,no binding (tested: 50 ng spotted)
2,B2,no binding (tested: 50 ng spotted)
3,B3,no binding (tested: 50 ng spotted)

# Molecular target: T3, IAPP fibrils
# Experiment: dot blot
# Procedure: as §1, §2
row,Binder,binding result
1,B1,"no binding (tested: 50 ng/ml antibody, 50 ng spotted)"
2,B2,"no binding (tested: 50 ng/ml antibody, 50 ng spotted)"
3,B3,"no binding (tested: 50 ng/ml antibody, 50 ng spotted)"

# Molecular target: γ-synuclein fibrils (UniProt O76070 1-127)
# Experiment: dot blot
# Procedure: as §1, §2
# Sequence of γ-synuclein fibrils (O76070 whole entry): as the sequence (O76070 whole entry) above
row,Binder,binding result
1,B1,no binding (tested: 50 ng spotted)
2,B2,no binding (tested: 50 ng spotted)
3,B3,no binding (tested: 50 ng spotted)

# Molecular target: T4, α-synuclein peptide 16 (106-119)
# Experiment: pepscan ELISA
# Procedure: (§3) To confirm the pepscan results using dot blot the mAbs were also tested by Pepscan using ELISA. […] The plate was washed with PBST and 50 μl of substrate (SuperSignal ELISA Femto Maximum Sensitivity Substrate, Thermo Scientific) was added and immediately read the plate using Victor X3 microtiter plate reader. After the ELISA signals were measured, the plate was also exposed onto X-ray film to develop the spots.
row,Binder,binding result
1,B1,"no binding (tested: 100 ng/ml antibody, 500 ng/well peptide)"
2,B2,"no binding (tested: 100 ng/ml antibody, 500 ng/well peptide)"
3,B3,"no binding (tested: 100 ng/ml antibody, 500 ng/well peptide)"

# Molecular target: T5, α-synuclein peptide 2 (8-21)
# Experiment: pepscan ELISA
# Procedure: as §3
row,Binder,binding result
1,B1,"no binding (tested: 100 ng/ml antibody, 500 ng/well peptide)"
2,B2,"no binding (tested: 100 ng/ml antibody, 500 ng/well peptide)"
3,B3,"no binding (tested: 100 ng/ml antibody, 500 ng/well peptide)"

# Molecular target: T6, α-synuclein peptide 7 (43-56)
# Experiment: pepscan ELISA
# Procedure: as §3
row,Binder,binding result
1,B1,"no binding (tested: 100 ng/ml antibody, 500 ng/well peptide)"
2,B2,"no binding (tested: 100 ng/ml antibody, 500 ng/well peptide)"
3,B3,"no binding (tested: 100 ng/ml antibody, 500 ng/well peptide)"

# Molecular target: T7, α-synuclein peptide 8 (50-63)
# Experiment: pepscan ELISA
# Procedure: as §3
row,Binder,binding result
1,B1,"no binding (tested: 100 ng/ml antibody, 500 ng/well peptide)"
2,B2,"no binding (tested: 100 ng/ml antibody, 500 ng/well peptide)"
3,B3,"no binding (tested: 100 ng/ml antibody, 500 ng/well peptide)"

# Molecular target: T8, α-synuclein peptide 15 (99-112)
# Experiment: pepscan ELISA
# Procedure: as §3
row,Binder,binding result
1,B1,"no binding (tested: 100 ng/ml antibody, 500 ng/well peptide)"
2,B2,"no binding (tested: 100 ng/ml antibody, 500 ng/well peptide)"
3,B3,"no binding (tested: 100 ng/ml antibody, 500 ng/well peptide)"

# Molecular target: T9, α-synuclein peptide 10 (64-77)
# Experiment: pepscan ELISA
# Procedure: as §3
row,Binder,binding result
1,B1,"no binding (tested: 100 ng/ml antibody, 500 ng/well peptide)"
2,B2,"no binding (tested: 100 ng/ml antibody, 500 ng/well peptide)"
3,B3,"no binding (tested: 100 ng/ml antibody, 500 ng/well peptide)"

# Molecular target: T10, α-synuclein peptide 18 (120-133)
# Experiment: pepscan ELISA
# Procedure: as §3
row,Binder,binding result
1,B1,"no binding (tested: 100 ng/ml antibody, 500 ng/well peptide)"
2,B2,"no binding (tested: 100 ng/ml antibody, 500 ng/well peptide)"
3,B3,"no binding (tested: 100 ng/ml antibody, 500 ng/well peptide)"

# Molecular target: T11, α-synuclein peptide 14 (92-105)
# Experiment: pepscan ELISA
# Procedure: as §3
row,Binder,binding result
1,B1,"no binding (tested: 100 ng/ml antibody, 500 ng/well peptide)"
2,B2,"no binding (tested: 100 ng/ml antibody, 500 ng/well peptide)"
3,B3,"no binding (tested: 100 ng/ml antibody, 500 ng/well peptide)"

# Molecular target: T12, α-synuclein peptide 11 (71-84)
# Experiment: pepscan ELISA
# Procedure: as §3
row,Binder,binding result
1,B1,"no binding (tested: 100 ng/ml antibody, 500 ng/well peptide)"
2,B2,"no binding (tested: 100 ng/ml antibody, 500 ng/well peptide)"
3,B3,"no binding (tested: 100 ng/ml antibody, 500 ng/well peptide)"

# Molecular target: T13, α-synuclein peptide 3 (15-28)
# Experiment: pepscan ELISA
# Procedure: as §3
row,Binder,binding result
1,B1,"no binding (tested: 100 ng/ml antibody, 500 ng/well peptide)"
2,B2,"no binding (tested: 100 ng/ml antibody, 500 ng/well peptide)"
3,B3,"no binding (tested: 100 ng/ml antibody, 500 ng/well peptide)"

# Molecular target: T14, α-synuclein peptide 9 (57-70)
# Experiment: pepscan ELISA
# Procedure: as §3
row,Binder,binding result
1,B1,"no binding (tested: 100 ng/ml antibody, 500 ng/well peptide)"
2,B2,"no binding (tested: 100 ng/ml antibody, 500 ng/well peptide)"
3,B3,"no binding (tested: 100 ng/ml antibody, 500 ng/well peptide)"

# Molecular target: T15, α-synuclein peptide 12 (78-91)
# Experiment: pepscan ELISA
# Procedure: as §3
row,Binder,binding result
1,B1,"no binding (tested: 100 ng/ml antibody, 500 ng/well peptide)"
2,B2,"no binding (tested: 100 ng/ml antibody, 500 ng/well peptide)"
3,B3,"no binding (tested: 100 ng/ml antibody, 500 ng/well peptide)"

# Molecular target: T16, α-synuclein peptide 6 (36-49)
# Experiment: pepscan ELISA
# Procedure: as §3
row,Binder,binding result
1,B1,"no binding (tested: 100 ng/ml antibody, 500 ng/well peptide)"
2,B2,"no binding (tested: 100 ng/ml antibody, 500 ng/well peptide)"
3,B3,"no binding (tested: 100 ng/ml antibody, 500 ng/well peptide)"

# Molecular target: T17, α-synuclein peptide 13 (85-98)
# Experiment: pepscan ELISA
# Procedure: as §3
row,Binder,binding result
1,B1,"no binding (tested: 100 ng/ml antibody, 500 ng/well peptide)"
2,B2,"no binding (tested: 100 ng/ml antibody, 500 ng/well peptide)"
3,B3,"no binding (tested: 100 ng/ml antibody, 500 ng/well peptide)"

# Molecular target: T18, α-synuclein peptide 17 (113-126)
# Experiment: pepscan ELISA
# Procedure: as §3
row,Binder,binding result
1,B1,"no binding (tested: 100 ng/ml antibody, 500 ng/well peptide)"
2,B2,"no binding (tested: 100 ng/ml antibody, 500 ng/well peptide)"
3,B3,"no binding (tested: 100 ng/ml antibody, 500 ng/well peptide)"

# Molecular target: T19, α-synuclein peptide 1 (1-14)
# Experiment: pepscan ELISA
# Procedure: as §3
row,Binder,binding result
1,B1,"no binding (tested: 100 ng/ml antibody, 500 ng/well peptide)"
2,B2,"no binding (tested: 100 ng/ml antibody, 500 ng/well peptide)"
3,B3,"no binding (tested: 100 ng/ml antibody, 500 ng/well peptide)"
